Consider one molecule from US20210317211A1 (published 2021).

Test [1] has as its target T1, human TREM2 over-expressed on Expi 293 cells (human, UniProt Q9NZC2 19-230).
T1 construct: also called Expi-hTREM2; hTREM2
T1 sequence: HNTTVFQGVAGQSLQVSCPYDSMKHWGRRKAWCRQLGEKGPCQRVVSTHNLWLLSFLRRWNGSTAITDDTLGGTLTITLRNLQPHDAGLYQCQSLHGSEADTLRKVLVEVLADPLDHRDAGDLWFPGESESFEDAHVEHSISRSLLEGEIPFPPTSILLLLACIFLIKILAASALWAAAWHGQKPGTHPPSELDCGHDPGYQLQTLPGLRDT
Put plainly: flow cytometry on Expi 293 cells over-expressing human TREM2; Alexa Fluor 647 secondary antibody. As for the experimental part:
(§1) 100,000 to 500,000 Expi 293 parental cells or Expi 293 cells over-expressing human or mouse TREM2 were plated in […] well plates and dead cells were stained with Zombie Near Infrared (Biolegend). Titrations of indicated unconjugated antibodies were incubated with these cells within a range of 0 ug/ml to 10 ug/ml in a 1:3 dilution range across 8-10 points. Dependent on their isotype (higG1 or mIgG2a), these primary unconjugated antibodies were detected with Alexa Fluor 647 conjugated anti-human Fc or anti-mouse Fc secondary antibodies (Jackson Immunoresearch). Alexa Fluor 647 signal was measured by flow cytometry (BD Fortessa X-14, BD Biosciences). EC50 values were calculated by curve fitting signal generated from antibodies binding to over-expressing cells over background fluorescence generated from HEK293 parental cells in Graphpad Prism (Graphpad Software).
Background: Flow cytometry measures light scatter and fluorescence of single cells or particles in a stream.

In test [2] the target is T2, mouse TREM2 over-expressed on Expi 293 cells (mouse, UniProt Q99NH8 19-227).
T2 construct: also called Expi-mTREM2; mTREM2
T2 sequence: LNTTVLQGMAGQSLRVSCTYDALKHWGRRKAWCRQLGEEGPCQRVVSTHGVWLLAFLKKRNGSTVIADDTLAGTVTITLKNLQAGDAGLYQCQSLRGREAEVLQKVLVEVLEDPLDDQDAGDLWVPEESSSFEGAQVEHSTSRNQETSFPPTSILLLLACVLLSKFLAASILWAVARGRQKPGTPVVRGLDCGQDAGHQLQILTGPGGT
Put plainly: flow cytometry on Expi 293 cells over-expressing mouse TREM2; Alexa Fluor 647 secondary antibody. How it is done: as §1

B1: Rat IgG2B Clone #237920 (R&D Systems Cat #MAB17291) (antibody, V domains shown)
VH: EVQLVESGGGLVQPGRSLKLSCAASGFTFSNYYMAWVRQAPTKGLEWVASLTNSGGSTYYRDSVKGRFTLSRDNAKSTLYLQMDSLRSEDTATYYCTREWAGSGYFDYWGQGVMVTVSS
VL: NIVMTQSPKSMSLSVGDRVTMNCKASQNVGNNLAWYQQKPGQSPKLLLYYTSNRFTGVPDRFTGGGYGTDFTLTINSVQAEDAAFYYCQRIYNSPWTFGGGTKLELKR
notes: also called mAb 237920
Broadly, the EC50 is the concentration that produces a half-maximal response. A low value points to greater potency. Take B1: the values for the EC50 in test [1] and in test [2] were 0.6 nM and 0.9 nM, respectively.
